From the Immune Epitope Database (IEDB)

Legend:
HLA-A*02:01 [1] = experiment: IEDB peptide-MHC binding, purified MHC/competitive/radioactivity; filed as Kd, often an IC50 or EC50 that approximates it; ≥ and ≤ were set here for values at or beyond the usual limits of such assays
HLA-A*02:03 = experiment: as above
HLA-A*02:17 = experiment: as above
HLA-A*02:06 = experiment: as above
HLA-A*02:02 = experiment: as above; details: source organism: Vaccinia virus WR
HLA-B*15:03 = experiment: as above; details: source organism: Vaccinia virus WR
HLA-B*08:01 [2] = experiment: as above
HLA-C*05:01 = experiment: IEDB peptide-MHC binding, purified MHC/direct/fluorescence; filed as Kd, often an IC50 or EC50 that approximates it; ≥ and ≤ were set here for values at or beyond the usual limits of such assays
HLA-B*15:42 = experiment: IEDB peptide-MHC binding, purified MHC/competitive/fluorescence; filed as Kd, often an IC50 or EC50 that approximates it; ≥ and ≤ were set here for values at or beyond the usual limits of such assays; details: source organism: human gammaherpesvirus 4
HLA-B*45:06 = experiment: as above; details: source organism: human gammaherpesvirus 4
HLA-B*83:01 = experiment: as above; details: source organism: human gammaherpesvirus 4
HLA-B*57:01 [3] = experiment: IEDB peptide-MHC binding, purified MHC/direct/fluorescence; filed as Kd, often an IC50 or EC50 that approximates it; ≥ and ≤ were set here for values at or beyond the usual limits of such assays
HLA-B*58:01 = experiment: as above
HLA-A*30:01 = experiment: IEDB peptide-MHC binding, purified MHC/competitive/radioactivity; filed as Kd, often an IC50 or EC50 that approximates it; ≥ and ≤ were set here for values at or beyond the usual limits of such assays; details: source organism: Vaccinia virus WR
HLA-A*32:01 = experiment: as above; details: source organism: Vaccinia virus WR
HLA-B*15:01 [4] = experiment: as above; details: source organism: Vaccinia virus WR
HLA-A*01:01 = experiment: IEDB peptide-MHC binding, purified MHC/direct/fluorescence; filed as Kd, often an IC50 or EC50 that approximates it; ≥ and ≤ were set here for values at or beyond the usual limits of such assays
HLA-A*02:01 [5] = experiment: as above; details: source organism: West Nile virus
HLA-A*03:01 [6] = experiment: as above
HLA-A*11:01 = experiment: as above
HLA-A*29:02 = experiment: as above
HLA-A*31:01 = experiment: as above
HLA-A*69:01 = experiment: as above; details: source organism: West Nile virus
HLA-B*07:02 = experiment: as above
HLA-B*08:01 [7] = experiment: as above; details: source organism: West Nile virus
HLA-B*18:01 [8] = experiment: as above; details: source organism: West Nile virus
HLA-B*27:05 = experiment: as above; details: source organism: West Nile virus
HLA-B*40:01 = experiment: as above; details: source organism: West Nile virus
HLA-B*46:01 [9] = experiment: as above; details: source organism: West Nile virus
HLA-A*02:01 [10] = experiment: IEDB peptide-MHC binding, purified MHC/competitive/fluorescence; ≥ and ≤ were set here for values at or beyond the usual limits of such assays; details: source organism: Zaire ebolavirus
HLA-B*15:01 [11] = experiment: as above; details: source organism: Zaire ebolavirus
HLA-B*39:01 [12] = experiment: IEDB peptide-MHC binding, purified MHC/direct/fluorescence; filed as Kd, often an IC50 or EC50 that approximates it; ≥ and ≤ were set here for values at or beyond the usual limits of such assays; details: source organism: Mycobacterium tuberculosis
HLA-B*44:02 = experiment: as above; details: source organism: Mycobacterium tuberculosis
HLA-A*02:01 [13] = experiment: IEDB peptide-MHC binding, purified MHC/competitive/fluorescence; filed as Kd, often an IC50 or EC50 that approximates it; ≥ and ≤ were set here for values at or beyond the usual limits of such assays; details: source organism: Staphylococcus aureus subsp. aureus N315
HLA-A*03:01 [14] = experiment: as above; details: source organism: Staphylococcus aureus subsp. aureus N315
HLA-A*26:01 = experiment: as above; details: source organism: Staphylococcus aureus subsp. aureus N315
HLA-B*15:01 [15] = experiment: as above; details: source organism: Staphylococcus aureus subsp. aureus N315
HLA-B*18:01 [16] = experiment: as above; details: source organism: Staphylococcus aureus subsp. aureus N315
HLA-B*27:03 = experiment: as above; details: source organism: Staphylococcus aureus subsp. aureus N315
HLA-B*39:01 [17] = experiment: as above; details: source organism: Staphylococcus aureus subsp. aureus N315
HLA-B*46:01 [18] = experiment: as above; details: source organism: Staphylococcus aureus subsp. aureus N315
HLA-B*57:01 [19] = experiment: as above; details: source organism: Staphylococcus aureus subsp. aureus N315
[20] = source organism: Dengue virus 4 Philippines/H241/1956
[21] = source organism: Dengue virus 1 Nauru/West Pac/1974
[22] = source organism: Vaccinia virus WR
[23] = source organism: Dengue virus 3 China/80-2/1980
[24] = source organism: Dengue virus 1 Brazil/97-11/1997
[25] = source organism: Camelpox virus M-96
[26] = source organism: West Nile virus
[27] = source organism: Mycobacterium tuberculosis
[28] = source organism: Dengue virus 4 Dominica/814669/1981
[29] = source organism: Dengue virus 1 Singapore/S275/1990

ALLGAMTAGI showed a Kd (HLA-A*02:01 [1]; [20]) of 25.3 nM, a Kd (HLA-A*02:03; [20]) of 58.8 nM and a Kd (HLA-A*02:17; [20]) of 126 nM.

For AMLDVDLHPA, the Kd (HLA-A*02:01 [1]; [21]) was 5.66 nM, the Kd (HLA-A*02:03; [21]) was 2.03 nM and the Kd (HLA-A*02:06; [21]) was 7.08 nM. The Kd (HLA-A*02:17; [21]) was 1100 nM.

Work on CAVNTPVSM yielded a Kd (HLA-A*02:02) of 6270 nM, a Kd (HLA-A*02:03; [22]) of 15700 nM and a Kd (HLA-A*02:06; [22]) of 1520 nM. The Kd (HLA-B*15:03) was 43 nM.

With CLMMMLPATL the Kd (HLA-A*02:03; [23]) was 6.85 nM, the Kd (HLA-A*02:17; [23]) was 253 nM and the Kd (HLA-B*08:01 [2]; [23]) was 60.5 nM.

With CMSNSRLSF the Kd (HLA-B*15:03) was 1.03 nM.

For ELMRRGDLPV, the Kd (HLA-A*02:03; [24]) was 139 nM and the Kd (HLA-A*02:17; [20]) was 19900 nM.

In the case of FLDKGTYTL, the Kd (HLA-C*05:01; source organism: human gammaherpesvirus 4) is reported as no more than 1 nM, the Kd (HLA-B*15:42) is reported as no less than 5000 nM and the Kd (HLA-B*45:06) is reported as no less than 5000 nM. For the same sequence, the Kd (HLA-B*83:01) was no less than 5000 nM.

With FLGEDGCWYG the Kd (HLA-A*02:01 [1]; [20]) was 52.4 nM and the Kd (HLA-A*02:17; [20]) was 1050 nM.

GLAMGIMML showed a Kd (HLA-A*02:01 [1]; [21]) of 77.6 nM, a Kd (HLA-A*02:03; [24]) of 0.67 nM and a Kd (HLA-A*02:17; [21]) of 15000 nM.

Sequence HLIMFEQYF has a Kd (HLA-B*15:03) of 45.5 nM.

ILHSDYQLF gave a Kd (HLA-B*15:03) of 2.43 nM.

In the case of ILTILTIIGL, the Kd (HLA-A*02:01 [1]; [20]) is reported as 18.5 nM and the Kd (HLA-A*02:17; [20]) is reported as 456 nM.

ISASDMQKF was tested, and the Kd (HLA-B*15:03) was 812 nM.

With KTINALVYF the Kd (HLA-B*57:01 [3]; [25]) was 784 nM, the Kd (HLA-B*58:01; [25]) was 45.3 nM and the Kd (HLA-A*30:01) was 131 nM. For the same sequence, the Kd (HLA-A*32:01) was 8.73 nM, the Kd (HLA-B*08:01 [2]; [22]) was 17100 nM and the Kd (HLA-B*15:01 [4]) was 0.366 nM. For the same sequence, the Kd (HLA-B*15:03) was 22.7 nM.

Sequence LAVLFINSI has a Kd (HLA-B*15:03) of 191 nM.

For LFLDIECHF, the Kd (HLA-A*30:01) was 19 nM, the Kd (HLA-A*32:01) was 3440 nM and the Kd (HLA-B*08:01 [2]; [22]) was 1120 nM. The Kd (HLA-B*15:01 [4]) was 547 nM and the Kd (HLA-B*15:03) was 47.3 nM.

LMTMNIVNF gave a Kd (HLA-A*32:01) of 6530 nM and a Kd (HLA-B*15:03) of 16.5 nM.

In the case of LQKLAQHSI, the Kd (HLA-B*15:03) is reported as 243 nM.

In the case of LVKTESWIL, the Kd (HLA-A*01:01; [26]) is reported as no less than 20000 nM, the Kd (HLA-A*02:01 [5]) is reported as no less than 20000 nM and the Kd (HLA-A*03:01 [6]; [26]) is reported as no less than 20000 nM. The Kd (HLA-A*11:01; [26]) was no less than 20000 nM, the Kd (HLA-A*29:02; [26]) was no less than 20000 nM and the Kd (HLA-A*31:01; [26]) was no less than 20000 nM. It also gave a Kd (HLA-A*69:01) of no less than 20000 nM, a Kd (HLA-B*07:02; [26]) of no less than 20000 nM and a Kd (HLA-B*08:01 [7]) of 1890 nM. For the same sequence, the Kd (HLA-B*18:01 [8]) was no less than 20000 nM, the Kd (HLA-B*27:05) was no less than 20000 nM and the Kd (HLA-B*40:01) was no less than 20000 nM. The Kd (HLA-B*46:01 [9]) was no less than 20000 nM, the Kd (HLA-B*57:01 [3]; [26]) was no less than 20000 nM and the Kd (HLA-B*58:01; [26]) was no less than 20000 nM.

Sequence QQFYWPVMN has an IC50 (HLA-A*02:01 [10]) of 8000 nM and an IC50 (HLA-B*15:01 [11]) of 34000 nM.

With SQAFNTPAL the Kd (HLA-A*01:01; [27]) was no less than 20000 nM, the Kd (HLA-A*03:01 [6]; [27]) was no less than 20000 nM and the Kd (HLA-A*29:02; [27]) was no less than 20000 nM. It also gave a Kd (HLA-A*31:01; [27]) of no less than 20000 nM, a Kd (HLA-B*07:02; [27]) of no less than 20000 nM and a Kd (HLA-B*39:01 [12]) of 30.8 nM. It also gave a Kd (HLA-B*44:02) of no less than 20000 nM, a Kd (HLA-B*57:01 [3]; [27]) of no less than 20000 nM and a Kd (HLA-B*58:01; [27]) of no less than 20000 nM.

Work on SQIITLTAF yielded a Kd (HLA-A*30:01) of 16400 nM, a Kd (HLA-A*32:01) of 1200 nM and a Kd (HLA-B*08:01 [2]; [22]) of no less than 40600 nM. The Kd (HLA-B*15:01 [4]) was 1.01 nM and the Kd (HLA-B*15:03) was 0.791 nM.

TFDVAPSRL showed a Kd (HLA-A*11:01; source organism: Homo sapiens) of no less than 32600 nM and a Kd (HLA-C*05:01; source organism: Mus musculus) of no less than 20000 nM.

Work on TLLCLIPTV yielded a Kd (HLA-A*02:06; [28]) of 3.44 nM and a Kd (HLA-A*02:17; [28]) of 151 nM.

VILNYIPVL showed a Kd (HLA-A*02:01 [13]) of 0.6 nM, a Kd (HLA-A*03:01 [14]) of no less than 20000 nM and a Kd (HLA-A*26:01) of no less than 20000 nM. The Kd (HLA-B*15:01 [15]) was no less than 20000 nM, the Kd (HLA-B*18:01 [16]) was no less than 20000 nM and the Kd (HLA-B*27:03) was no less than 20000 nM. It also gave a Kd (HLA-B*39:01 [17]) of no less than 20000 nM, a Kd (HLA-B*46:01 [18]) of no less than 20000 nM and a Kd (HLA-B*57:01 [19]) of no less than 20000 nM.

In the case of VLFVVTLIPL, the Kd (HLA-A*02:01 [1]; [20]) is reported as 57 nM and the Kd (HLA-A*02:17; [20]) is reported as 3110 nM.

In the case of VLMLVAHYAI, the Kd (HLA-A*02:01 [1]; [29]) is reported as 97.4 nM and the Kd (HLA-A*02:17; [29]) is reported as 1830 nM.

For WQSVGHMMV, the IC50 (HLA-A*02:01 [10]) was 1540 nM and the IC50 (HLA-B*15:01 [11]) was 4760 nM.
